Test results published in patent publication US20160176943A1 (INSERM INSITITUT NATIONAL DE LA SANTE ET DE LA RECHERCHE …, published 2016).

T1: recombinant NKG2D-Fc chimeric protein (UniProt P26718 78-216)
T1 construct: Bought from R&D Systems; also called NKG2D-Fc protein; recombinant NKG2D-Fc chimera protein; not shown: Fc part
T1 sequence (looked up): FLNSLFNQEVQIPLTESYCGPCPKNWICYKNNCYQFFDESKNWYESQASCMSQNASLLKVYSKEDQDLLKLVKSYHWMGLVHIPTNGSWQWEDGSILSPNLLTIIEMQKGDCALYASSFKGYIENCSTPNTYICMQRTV


Columns and labels:
[1] = biological target: NKG2D receptor on NK cells (UniProt P26718); assay: cell-based or functional assay
[2] = biological target: T1, recombinant NKG2D-Fc chimeric protein; assay: NKG2D-Fc staining of COS transfectants, facs and cellular immunofluorescence
Procedure: FIG. 10. A). MICA-B2 is a novel ligand for the NKG2D receptor. COS cells were transfected with cDNA for WT MICA or MICA isoforms. Forty-eight hours post-transfection cells welle incubated with recombinant NKG2D-Fc chimeric protein. […] Staining was analyzed by fluorescent microscopy and positive signal was converted into black and white picture, positive cells intercating with NKG2D-Fc are shown in black. COS cells transfected with the WT cDNA for MICA are used as positive controls. B) Visualisation of NKG2D binding on MICA-B2 isoform expression analyzed by confocal microscopy on COS-7 transfected cells using a recombinant NKG2D-Fc protein. Transfected cells were detected using an anti-Flag (M2) monoclonal antibody. NKG2D-Fc binding and Flag intracellular detection were achieved 48 h post-transfection before and after cell fixation and permeabilization, respectively. COS cells transfected with the WT cDNA for MICA are used as positive controls. Immunofluorescence staining was obtained using an FITC-labeled secondary antibody and shown in black and white, specific staining appears in white.
To functionally assess a role for the MICA isoforms in immune regulation, the possible interaction of MICA isoforms with NKG2D receptor, the natural receptor of full length MICA, was investigated by facs and by cellular immunofluorescence. […]

NKG2D expression on NK (NKL) cells after overnight incubation with soluble protein, flow cytometry [1] | binding result [2] | Molecule
47.5% |  | soluble recombinant isoform MICA-B2 (from UniProt Q29983 24-307) (ligand)
 | no binding | MICA-D isoform expressed on transfected cells (ligand, also called isoform D; not shown: C-terminal FLAG tag (three copies of FLAG in 3' from the pCMV-3Tag vector)) EPHSLRYNLTVLSGDGSVQSGFLAEVHLDGQPFLRCDRQKCRAKPQGQWAEDVLGNKTWDRETRDLTGNGKDLRMTLAHIKDQKEGKVLVLQSHWQTFHVSAVAAAAAAAAAIFVIIIFYVCCCKKKTSAAEGPELVSLQVLDQHPVGTSDHRDATQLGFQPLMSDLGSTGSTEGA
 | no binding | MICA-B1 isoform expressed in transfected cells (ligand, Alpha1 domain, novel polypeptide region, TM and CYT; also called isoform B1; not shown: C-terminal FLAG tag (three copies of FLAG in 3' from the pCMV-3Tag vector)) EPHSLRYNLTVLSGDGSVQSGFLAEVHLDGQPFLRCDRQKCRAKPQGQWAEDVLGNKTWDRETRDLTGNGKDLRMTLAHIKDQKEVLQSSDLGHERQEFLEGRCHEDQDTLSRYACRLPAGTTAISKIRRSPEENSAPHGECHPQRGLEGQHYRDMQGFWLLSLEYHTELASGWGKVLVLQSHWQTFHVSAVAAAAAAAAAIFVIIIFYVCCCKKKTSAAEGPELVSLQVLDQHPVGTSDHRDATQLGFQPLMSDLGSTGSTEGA
